# Where a chain is given by its changes, count along the chain named.
# T1: WT G-CSFR(Ig-CRH), purified, tag cleaved (human, UniProt Q99062 26-331)
# T1 construct: also called G-CSFRWT; wild type G-CSFR ECD
# T1 chain: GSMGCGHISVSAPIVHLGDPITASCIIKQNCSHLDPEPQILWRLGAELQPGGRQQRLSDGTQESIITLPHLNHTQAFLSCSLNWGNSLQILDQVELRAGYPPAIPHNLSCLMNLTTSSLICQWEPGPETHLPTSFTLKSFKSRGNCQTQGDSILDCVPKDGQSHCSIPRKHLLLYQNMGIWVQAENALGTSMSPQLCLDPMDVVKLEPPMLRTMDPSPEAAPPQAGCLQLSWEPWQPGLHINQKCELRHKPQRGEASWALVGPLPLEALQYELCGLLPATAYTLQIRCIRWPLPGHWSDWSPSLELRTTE
# T2: G-CSFR(Ig-CRH)E design 34, purified, tag cleaved (human, UniProt Q99062 26-331)
# T2 construct: SPR protein; also called Design 34 G-CSFR(Ig-CRH)E
# T2 chain: T1 chain with R143E, R169D
# T3: G-CSFR(Ig-CRH)E design 300, purified, tag cleaved (human, UniProt Q99062 26-331)
# T3 construct: SPR protein; also called Design 300 G-CSFR(Ig-CRH)E
# T3 chain: T1 chain with F77K, Q93K, R169D
# T4: G-CSFR(Ig-CRH)E design 130, purified, tag cleaved (human, UniProt Q99062 26-331)
# T4 construct: SPR protein; also called Design 130 G-CSFR(Ig-CRH)E
# T4 chain: T1 chain with R43E, R169D
# T5: G-CSFR(Ig-CRH)E design 134 (R41E_R141E_R167D), purified, tag cleaved (human, UniProt Q99062 26-331)
# T5 construct: also called Design 134 G-CSFR(Ig-CRH)E; design 137 G-CSFR(Ig-CRH)E
# T5 chain: T1 chain with R43E, R143E, R169D
# T6: G-CSFR(Ig-CRH)E design 35, purified, tag cleaved (human, UniProt Q99062 26-331)
# T6 construct: SPR protein; also called Design #35 G-CSFR(Ig-CRH)E
# T6 chain: T1 chain with R143E, L173E, Q176E
# T7: G-CSFR(Ig-CRH)E design 402, purified, tag cleaved (human, UniProt Q99062 26-331)
# T7 construct: SPR protein; also called Design 402 G-CSFR(Ig-CRH)E
# T7 chain: T1 chain with R43E, R169E, Q176E, R290E
# T8: G-CSFR(Ig-CRH)E design 401, purified, tag cleaved (human, UniProt Q99062 26-331)
# T8 construct: SPR protein; also called Design 401 G-CSFR(Ig-CRH)E
# T8 chain: T1 chain with R43E, R169D, R290D
# T9: G-CSFR(Ig-CRH)E design 304, purified, tag cleaved (human, UniProt Q99062 26-331)
# T9 construct: SPR protein; also called Design 304 G-CSFR(Ig-CRH)E
# T9 chain: T1 chain with R43E, E95K, R169D
# T10: G-CSFR(Ig-CRH)E design 303, purified, tag cleaved (human, UniProt Q99062 26-331)
# T10 construct: SPR protein; also called Design 303 G-CSFR(Ig-CRH)E
# T10 chain: T1 chain with E95K, R169D
# B1: G-CSFE design 34, purified, tag cleaved (ligand)
# chain: TPLGPASSLPQSFLLKCLEQVRKIQGDGAALQEKLCATYKLCHPEELVLLGHSLGIPWAPLSSCPSQALQLAGCLSQLHSGLFLYQGLLQALEGISPELGPTLDTLQKDVARFATTIWQQMRRLGMAPALQPTQGAMPAFASAFQRRAGGVLVASHLQSFLEVSYRVLRHLAQAAAENLYFQ
# notes: also called Design 34 G-CSFE
# B2: G-CSFE design 300, purified, tag cleaved (ligand)
# chain: B1 chain with K40D, L41D, R122E, R123E
# notes: also called Design 300 G-CSFE
# B3: G-CSFE design 130 (E46R_L108K_D112R), purified, tag cleaved (ligand)
# chain: B1 chain with E46R, R122E, R123E
# notes: also called 130 G-CSF; G-CSF137
# B4: G-CSFE design 35, purified, tag cleaved (ligand)
# chain: B1 chain with K108L, R112D, T115K
# notes: also called Design 35 G-CSFE
# B5: G-CSFE design 402, purified, tag cleaved (ligand)
# chain: B1 chain with E19K, E46R, K108L, R112K, T115K, R122E, R123E
# notes: also called Design 402 G-CSFE
# B6: G-CSFE design 401, purified, tag cleaved (ligand)
# chain: B1 chain with E19K, E46R, R122E, R123E
# notes: also called Design 401 G-CSFE
# B7: G-CSFE design 304, purified, tag cleaved (ligand)
# chain: B1 chain with E46R, R122E, R123E, R147E
# notes: also called 304 G-CSF
# B8: G-CSFE design 303, purified, tag cleaved (ligand)
# chain: B1 chain with R122E, R123E, R147E
# notes: also called Design 303 G-CSFE
# Tests used:
# [1] = molecular target: T1, WT G-CSFR(Ig-CRH), purified, tag cleaved; assay: SPR (Biacore T200)
# [2] = molecular target: T2, G-CSFR(Ig-CRH)E design 34, purified, …; assay: SPR (Biacore T200), G-CSFR(Ig-CRH)E amine-coupled, G-CSFE injected; KD relative to WT:WT control (larger = weaker)
# Description: (§1) The SPR binding assays were carried out on a Biacore T200 instrument (GE Healthcare, Mississauga, ON, Canada) with PBS-T (PBS+0.05% (v/v) Tween 20) running buffer at a temperature of 25° C. CMS Series S sensor chip, Biacore amine coupling kit (NHS, EDC and 1 M ethanolamine), and 10 mM sodium acetate buffers were all purchased from GE Healthcare. PBS running buffer with 0.05% Tween20 (PBS-T) was purchased from Teknova Inc. (Hollister, CA).
# (§2) To determine binding affinity of G-CSFE to G-CSFRE the G-CSFRE mutant was captured by standard amine coupling as described by the manufacturer (GE LifeSciences). Briefly, immediately after EDC/NHS activation, a 5 μg/mL solution of G-CSFRE in 10 mM NaOAc, pH 5.0, was injected at a flow rate of 5 μL/min until a receptor density of ˜700-900 RU was reached. The remaining active groups were quenched by a 420 s injection of 1 M ethanolamine hydrochloride-NaOH pH 8.5 at 10 μL/min. Using single-cycle kinetics, six concentrations of a two-fold dilution series of the corresponding G-CSFE mutant starting at 200 nM with a blank buffer control were sequentially injected at 25 μL/min for 300s with a 1800s dissociation phase, resulting in a set of sensorgrams with a buffer blank reference. The same sample titration was also performed on a reference cell with no variants captured. The chip was regenerated to prepare for the next injection cycle by one pulse of 10 mM glycine/HCl, pH 2.0, for 30 s at 30 μL/min.
# (§3) Double-referenced sensorgrams from duplicate or triplicate repeat injections were analyzed using Biacore™ T200 Evaluation Software v3.0 and fit to the 1:1 Langmuir binding model.
# [3] = molecular target: T1, WT G-CSFR(Ig-CRH), purified, tag cleaved; assay: SPR (Biacore T200), WT G-CSFR(Ig-CRH) amine-coupled, G-CSFE injected; KD relative to WT:WT control (larger = weaker)
# [4] = molecular target: T1, WT G-CSFR(Ig-CRH), purified, tag cleaved; assay: SPR (Biacore T200), WT G-CSFR(Ig-CRH) amine-coupled
# [5] = molecular target: T3, G-CSFR(Ig-CRH)E design 300, purified, …; assay: SPR (Biacore T200), G-CSFR(Ig-CRH)E amine-coupled, G-CSFE injected; KD relative to WT:WT control (larger = weaker)
# Description: as §1, §2, §3
# [6] = molecular target: T4, G-CSFR(Ig-CRH)E design 130, purified, …; assay: as above
# Description: as §1, §2, §3
# [7] = molecular target: T5, G-CSFR(Ig-CRH)E design 134 …; assay: as above
# Description: as §1, §2, §3
# [8] = molecular target: T6, G-CSFR(Ig-CRH)E design 35, purified, …; assay: as above
# Description: as §1, §2, §3
# [9] = molecular target: T7, G-CSFR(Ig-CRH)E design 402, purified, …; assay: SPR (Biacore T200), G-CSFR(Ig-CRH)E amine-coupled, G-CSFE injected; steady-state derived KD relative to steady-state WT:WT KD
# Description: as §2, §3
# (§4) Kinetic-derived affinity constants (KD) where obtained by fitting the association and dissociation phases of the curves. […] For the cases in which the kinetic parameters could not be fit an attempt was made to derive a steady state affinity constant.
# [10] = molecular target: T8, G-CSFR(Ig-CRH)E design 401, purified, …; assay: as above
# Description: as §2, §3, §4
# [11] = molecular target: T9, G-CSFR(Ig-CRH)E design 304, purified, …; assay: SPR (Biacore T200), G-CSFR(Ig-CRH)E amine-coupled, G-CSFE injected; KD relative to WT:WT control (larger = weaker)
# Description: as §1, §2, §3
# [12] = molecular target: T10, G-CSFR(Ig-CRH)E design 303, purified, …; assay: SPR (Biacore T200), G-CSFR(Ig-CRH)E amine-coupled, G-CSFE injected; steady-state derived KD relative to steady-state WT:WT KD
# Description: as §2, §3, §4
binder,measurement,setting,value
B1,fold weaker KD (vs WT:WT),[1],≥ 20 fold
same,KD fold change (vs WT:WT),[2],5 fold
same,KD fold change (vs WT:WT),[3],33 fold
B2,binding result,[4],no binding
same,KD fold change (vs WT:WT),[5],194 fold
B3,binding result,[4],no binding
same,KD fold change (vs WT:WT),[6],0.9 fold
same,KD fold change (vs WT:WT),[7],0.3 fold
B4,KD fold change (vs WT:WT),[8],3.3 fold
same,KD fold change (vs WT:WT),[3],5 fold
B5,binding result,[4],no binding
same,KD fold change (vs WT:WT),[9],0.8 fold
B6,binding result,[4],no binding
same,KD fold change (vs WT:WT),[10],0.6 fold
B7,binding result,[4],no binding
same,KD fold change (vs WT:WT),[11],6.5 fold
B8,binding result,[4],no binding
same,KD fold change (vs WT:WT),[12],2.2 fold
